Among the data in article PMC3438196 are MAPPIT signal, % of WT values, retold here.

This assay deals with Apobec3G YS166-167AA MAPPIT bait (human) (UniProt Q9HC16). The assay is described as follows: two-hybrid; MAPPIT (mammalian two-hybrid) in intact HEK293T cells: bait on the EpoR/leptin receptor chimera, prey on gp130 fragments, pXP2d2-rPAP1-luciferase reporter; fold induction of luciferase, Epo-stimulated (10 ng/ml hEpo) over unstimulated; 6-well or 96-well calcium phosphate transfection. For orientation: A reporter such as luciferase makes a cellular process visible.
Apobec3G YS166-167AA MAPPIT bait (human), sequence (Q9HC16 whole entry Y166A/S167A, the tested form may be a part): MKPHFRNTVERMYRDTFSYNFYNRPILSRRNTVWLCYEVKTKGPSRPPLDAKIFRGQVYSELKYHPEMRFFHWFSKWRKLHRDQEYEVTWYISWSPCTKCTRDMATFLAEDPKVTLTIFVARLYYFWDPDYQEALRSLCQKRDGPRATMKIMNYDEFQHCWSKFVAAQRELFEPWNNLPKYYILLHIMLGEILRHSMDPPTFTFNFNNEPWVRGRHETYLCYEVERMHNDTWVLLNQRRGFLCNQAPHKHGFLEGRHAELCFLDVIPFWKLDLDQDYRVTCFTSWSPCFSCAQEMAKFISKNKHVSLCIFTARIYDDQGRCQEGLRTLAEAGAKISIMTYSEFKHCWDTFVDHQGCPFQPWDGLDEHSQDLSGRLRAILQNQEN

“Gagpol MAPPIT prey (pMG2-Gagpol) (natural protein)”: the MAPPIT signal, % of WT is 80 % of WT.
